Results taken from article doi:10.1101/384248.

Target: p53 (human (endogenous in HCT 116, MCF7, U2OS)), P04637
Assay: co-IP
Conditions: remark: other sources report otherwise

Sequence of p53 (human (endogenous in HCT 116, MCF7, U2OS)), P04637 (P04637 whole entry): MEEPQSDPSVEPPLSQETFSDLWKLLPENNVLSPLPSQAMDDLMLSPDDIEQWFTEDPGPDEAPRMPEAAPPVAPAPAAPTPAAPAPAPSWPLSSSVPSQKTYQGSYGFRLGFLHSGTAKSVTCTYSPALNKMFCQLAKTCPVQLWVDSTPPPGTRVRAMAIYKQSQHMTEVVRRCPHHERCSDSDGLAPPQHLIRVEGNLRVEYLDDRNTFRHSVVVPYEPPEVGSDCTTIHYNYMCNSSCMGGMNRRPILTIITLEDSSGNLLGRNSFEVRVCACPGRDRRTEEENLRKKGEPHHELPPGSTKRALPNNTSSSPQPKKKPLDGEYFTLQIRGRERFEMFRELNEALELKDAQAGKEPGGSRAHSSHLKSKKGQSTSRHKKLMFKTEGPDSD

B1: MDMX, O15151 1-490 (natural protein)
chain: MTSFSTSAQCSTSDSACRISPGQINQVRPKLPLLKILHAAGAQGEMFTVKEVMHYLGQYIMVKQLYDQQEQHMVYCGGDLLGELLGRQSFSVKDPSPLYDMLRKNLVTLATATTDAAQTLALAQDHSMDIPSQDQLKQSAEESSTSRKRTTEDDIPTLPTSEHKCIHSREDEDLIENLAQDETSRLDLGFEEWDVAGLPWWFLGNLRSNYTPRSNGSTDLQTNQDVGTAIVSDTTDDLWFLNESVSEQLGVGIKVEAADTEQTSEEVGKVSDKKVIEVGKNDDLEDSKSLSDDTDVEVTSEDEWQCTECKKFNSPSKRYCFRCWALRKDWYSDCSKLTHSLSTSDITAIPEKENEGNDVPDCRRTISAPVVRPKDAYIKKENSKLFDPCNSVEFLDLAHSSESQETISSMGEQLDNLSEQRTDTENMEDCQNLLKPCSLCEKRPRDGNIIHGRTGHLVTCFHCARRLKKAGASCPICKKEIQLVIKVFIA
For B1, which percent decrease of MDMX bound to p53 in cells treated with RITA is on record?
Its percent decrease of MDMX bound to p53 in cells treated with RITA is 43%.
